Blank lines part the entries; values can stand above or below the compound they belong to.
Columns and labels:
[1] = target: T1, CRH-R1 (Mus musculus, UniProt P35347); assay: c-fos mRNA levels by quantitative RT-PCR in AtT-20 cells; format: cell-based, murine
T1 construct: host or cells: AtT-20 (murine pituitary corticotroph adenoma cells)
T1 sequence (P35347 24-415): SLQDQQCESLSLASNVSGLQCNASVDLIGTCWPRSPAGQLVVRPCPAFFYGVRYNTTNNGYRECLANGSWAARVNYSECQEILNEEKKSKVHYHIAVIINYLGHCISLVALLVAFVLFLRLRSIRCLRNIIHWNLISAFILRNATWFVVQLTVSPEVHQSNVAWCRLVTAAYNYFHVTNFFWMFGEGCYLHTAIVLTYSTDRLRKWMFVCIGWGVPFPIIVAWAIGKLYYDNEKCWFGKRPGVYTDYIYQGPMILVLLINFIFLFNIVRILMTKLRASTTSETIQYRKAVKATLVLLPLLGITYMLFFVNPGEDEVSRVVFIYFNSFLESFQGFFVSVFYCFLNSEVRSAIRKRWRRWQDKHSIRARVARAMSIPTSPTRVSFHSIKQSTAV
Experimental: Cell culture and sample preparation—AtT-20 cells were purchased from ATCC and were maintained at 37° C. in 5% CO2 in humidified air in Dulbecco's modified Eagle's medium (Invitrogen Life Technologies) containing 10% fetal bovine serum, 50% horse serum and 4.5 g/L D-glucose. For experiments cells were seeded in 25 cm^2 flasks. The medium was replaced 48 h later and cells were treated with either 0.1% DMSO, 1 μM CRH (Sigma) in DMSO, 1 μM R121919 in DMSO or 1 μM CRH+1 μM R121919 in DMSO for 0, 0.5, 1, 2, 4, 8 and 24 h in fresh medium. The incubation was stopped by aspirating the incubation medium and adding 3 ml Trizol (Invitrogen Life Technologies) for lysis of the cells. Total RNA was extracted using Trizol according to the instructions of the manufacturer. […]
Quantitative RT-PCR—Microarray data were confirmed using real time PCR analysis. […] Quantitative PCR was performed on a ABIPrism 7700 cycler (Applied Biosystems) using a Taqman PCR kit. […] A linear regression line calculated from the standard curves allowed the determination of transcript levels in RNA samples from the different time points.
Transcriptional response to CRH was studied in the CRH-R1-expressing murine AtT-pituitary corticotroph-derived adenoma cell line. Whereas CRH-R1 was readily detectable both by real time quantitative RT-PCR (RTq) and western blot, CRH-R2 expression could not be discerned in AtT-20 cells. […]

[2] = target: T1, CRH-R1; assay: Microarray transcriptional response to CRH in AtT-20 cells (Murine Genome U74Av2 arrays); format: cell-based
Experimental: (§1) Cell culture and sample preparation—AtT-20 cells were purchased from ATCC and were maintained at 37° C. in 5% CO2 in humidified air in Dulbecco's modified Eagle's medium (Invitrogen Life Technologies) containing 10% fetal bovine serum, 50% horse serum and 4.5 g/L D-glucose. For experiments cells were seeded in 25 cm^2 flasks. The medium was replaced 48 h later and cells were treated with either 0.1% DMSO, 1 μM CRH (Sigma) in DMSO, 1 μM R121919 in DMSO or 1 μM CRH+1 μM R121919 in DMSO for 0, 0.5, 1, 2, 4, 8 and 24 h in fresh medium. The incubation was stopped by aspirating the incubation medium and adding 3 ml Trizol (Invitrogen Life Technologies) for lysis of the cells. Total RNA was extracted using Trizol according to the instructions of the manufacturer. 100 μg total RNA was further purificied using Rneasy kit (Qiagen) with DNAseI treatment on column.
Microarray hybridization—cRNA was prepared as follows. Reverse transcription was performed on 10 μg of total RNA for 1 h at 42° C. using a T7-oligo(dT)24-primer and SuperscriptII RT (Invitrogen Life Technologies). Second strand cDNA synthesis was done for 2 h at 16° C. using Escherichia coli DNA Polymerase I, DNA ligase and RNAseH (Invitrogen Life Technologies). After phenol-chloroform extraction using phase-lock gel (Eppendorf) in vitro transcription was performed for 6 h at 37° C. using the Bioarray high-yield RNA transcript labeling kit with Biotin labeled ribonucleotides (Enzo Diagnostics). cRNA samples were purified on Qiagen Rneasy columns followed by fragmentation for 35 min at 95° C. cRNA yields were between 50 and 100 μg. Samples were processed on GeneChips (Affymetrix, Santa Clara, Calif.). In order to check the quality of each sample, 5 μg of labeled cRNA was run on Test2-arrays. Actual experiments were performed on Murine Genome U74Av2 arrays, containing probe sets interrogating approximately 12,000 full-length mouse genes and EST clusters from the UniGene database (Build 74). Hybridization was performed using 15 μg CRNA for 16 h at 45° C. under continuous rotation. Arrays were stained in Affymetrix Fluidics stations using Streptavidin/Phycoerythrin (SAPE) followed by staining with anti-streptavidin antibody and a second SAPE staining. Subsequently arrays were scanned with a HP-Laserscanner and data were analyzed with the Microarray Suite Software (Affymetrix). No scaling or normalization was performed at this stage. Quality of the experiment was assessed based on the percentages present calls across all samples which was on average 47.06±2.45%. The cytoplasmic β-actin and GAPDH 5′/3′ ratios were 1.10±0.08 and 0.93±0.05 respectively.
Basically this alignment sets the average intensity of one array to the average measured across all arrays, compensating for array to array variations in hybridization, washing and staining, ultimately allowing a reasonable comparison between arrays. After alignment polished data were analyzed using weighted spectral mapping. Weighted spectral mapping is an unsupervised multivariate analysis method which includes double-centering of the data combined with a specialized visualization representing the two highest principle components. Even though double-centering removes the “size” component of the array data, this information is reintroduced in the visualization via the area of the symbols representing the size of the respective samples and genes. This method allows the reduction of a large microarray dataset and provides means to visually inspect and thereby identify clusters of genes and/or subjects in the data (7). A more detailed analysis was carried out using the OmniViz program. All records which were absent in all experiments were removed and all signals less than 20 were set to 20. Gene expression fold differences for CRH, R121919 and CRH+R121919 treatments were calculated at each timepoint. For those calculations signals at corresponding timepoints in DMSO treated samples were used to calculate ratios. […]

[3] = tested on: CRF1 mRNA; assay: CRF1 mRNA in AtT-20 cells exposed to CRF; format: cell-based, murine; conditions: AtT-20 cells exposed to 1 μM CRF
Experimental: as §1
Quantitative RT-PCR—Microarray data were confirmed using real time PCR analysis. First strand cDNA synthesis was performed on 0.5 μg total RNA using random hexamer primers and SuperscriptII RT (Invitrogen Life Technologies). Quantitative PCR was performed on a ABIPrism 7700 cycler (Applied Biosystems) using a Taqman PCR kit. […] A linear regression line calculated from the standard curves allowed the determination of transcript levels in RNA samples from the different time points.

[4] = target: corticotropin-releasing hormone receptor 1 (CRH-R1), endogenous on murine AtT-20 cells (murine) (UniProt P35347); assay: cell-based or functional assay

suppression of CRH-elicited c-fos transcription ([1]; 1 μM CRH in the presence of 1 μM R121919): almost completely suppressed
suppression of CRH-induced transcriptional responses (microarray) ([2]; 1 μM CRH + 1 μM R121919): suppressed
Compound: CCCN(CCC)c1cc(C)nc2c(-c3cnc(N(C)C)cc3C)c(C)nn12 [R121919]

c-fos transcription (c-fos mRNA levels by RTq) ([1]; 1 μM CRH, levels already going down after 0.5 to 1 h): transient surge
number of regulated genes (greater than 2-fold change in transcript levels at any one time point, relative to DMSO, differing from antagonist treatment) ([2]; 1 μM CRH, 0.5 to 24 h): 111 genes
number of intermediate responders (responding after 1 to 2 hours of treatment) ([2]; 1 μM CRH, 1 to 2 hours): 32 genes
number of early responders (2-fold change after 30 minutes treatment) ([2]; 1 μM CRH, 30 minutes): 26 genes
number of late responders (response after 2 hours or more) ([2]; 1 μM CRH, 2 hours or more): 53 genes
direction of regulation of all responder genes ([2]; after exposure to CRH): up regulated
Compound: CRH: Corticotropin releasing hormone, a 41-amino acid polypeptide (Sigma)
alterations in CRF1 mRNA [3]: not detect any alterations

microarray gene expression in AtT-20 cells (greater than 2-fold change in transcript levels against DMSO) [4]: 111 genes
Compound: corticotropin-releasing hormone (CRH) (ligand)
